Three molecules from patent WO2004044204A2 (dated 2004) can be followed below.

Assay [1] addresses T1, β-amyloid peptide 1-42.
T1 construct: Synthesised on solid phase; It was coated on plates or used in solution; one result is told for its fibrillar form; also called Aβ42; peptide Aβ42
Put plainly: ELISA with overlapping peptides that are fragments of Aβ42; the affinity is told for the carboxy terminal part.

In assay [2] the target is T1, β-amyloid peptide 1-42. Kind of assay: competition ELISA.

B1: VHH ALZ V31-1 (VHH)
VHH: EVQLQASGGGSVQPGGSLRLSCAASGFIFGWSTMSWVRQAPGKGLEWVSTISGGGSATTYTDSVKGRFTISRDRAKNTLYLQMNSLKPEDTAIYYCNADVSTGFRYQRKDYWGRGTQVTVSS
notes: Alpaca VHH, produced soluble in E. coli HB2151 from pHEN-1; It was detected with anti-c-myc 9E10; also called VHH-V31-1; VHH V31-1
B1 returned a Kd in the assay with β-amyloid peptide 1-42 [1] of approximately 0.01 µM.

B2: VHH ALZ L1-3 (VHH)
VHH: EVQLQASGGGLVQAGGSLRLSCSASASTTFSMNTMAWHRQAPGKQRSLVALIGATHSINYEDSVKGRFTISRDNAKNTVYLQMSSLKPEDTAVYYCNDWYWQMKGGSWGQGTQVTVSS
notes: Alpaca VHH, produced soluble in E. coli HB2151 from pHEN-1 and tested as culture supernatant; It was detected with anti-c-myc 9E10; also called VHH ALZ Ll-3; VHH-L1-3
For B2, the Kd in the assay with β-amyloid peptide 1-42 [2] was 0.06 µM.

B3: VHH ALZ L35 (VHH)
VHH: EVQLQASGGGLVQAGGSLRLSCAASGSTFSINVIGWYRQAPGKQRELVAGISRSGNTNYADSVEGRFTISRDYAKNTVYLQMNSLKPEDTAVYYCHSKTYLLHMYWGQGTQVTVSS
notes: Alpaca VHH, produced soluble in E. coli HB2151 from pHEN-1 and tested as culture supernatant; It was detected with anti-c-myc 9E10; also called VHH-L35; VHH L35
B3: in the assay with β-amyloid peptide 1-42 [2], the Kd worked out at 0.03 µM.
